Results: IntAct's records for PubMed 9847329

B1: Protein Rep68 (Adeno-associated virus 2 (isolate Srivastava/1982)), P03132 (parent)
chain: MPGFYEIVIKVPSDLDGHLPGISDSFVNWVAEKEWELPPDSDMDLNLIEQAPLTVAEKLQRDFLTEWRRVSKAPEALFFVQFEKGESYFHMHVLVETTGVKSMVLGRFLSQIREKLIQRIYRGIEPTLPNWFAVTKTRNGAGGGNKVVDECYIPNYLLPKTQPELQWAWTNMEQYLSACLNLTERKRLVAQHLTHVSQTQEQNKENQNPNSDAPVIRSKTSARYMELVGWLVDKGITSEKQWIQEDQASYISFNAASNSRSQIKAALDNAGKIMSLTKTAPDYLVGQQPVEDISSNRIYKILELNGYDPQYAASVFLGWATKKFGKRNTIWLFGPATTGKTNIAEAIAHTVPFYGCVNWTNENFPFNDCVDKMVIWWEEGKMTAKVVESAKAILGGSKVRVDQKCKSSAQIDPTPVIVTSNTNMCAVIDGNSTTFEHQQPLQDRMFKFELTRRLDHDFGKVTKQEVKDFFRWAKDHVVEVEHEFYVKKGGAKKRPAPSDADISEPKRVRESVAQPSTSDAEASINYADRLARGHSL

Variants of: B1
Conditions: with tcp4_human SUB1, P53999

Q: For K340H, which “effect of a mutation on the interaction” value is on record?
A: The value was “disrupting interaction”.
